Source: the supplement of paper PMC7125110
± gives the standard error. Variants at the floor of the assay were thinned out.

B1: glmS ribozyme (parent)
chain: AUAAAAGCGCCAGAACUACAGAAAUGUAGUUGACGAGGAGGAGGUUUAUCGAAUUUUCGGCGGAUGCCUCCAAA

Variants of: B1
Test: self-cleavage kobs at 640 uM GlcN6P; higher = faster cleavage; RNA array
Settings: with glucosamine-6-phosphate
In short: (§1)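 Barcoded ribozyme variants were transcribed in situ on sequenced MiSeq chips by E. coli RNA polymerase. At 37 °C, a hybridised Cy3 probe tracked them while glucosamine-6-phosphate (40 μM to 10 mM) in HEPES/KCl/Mg(OAc)2 buffer flowed in and tiles were imaged over ~14 h. Per-tile medians of signals normalised to baseline and to non-cleaving reference variants were fit to one- or two-exponential decays, giving kobs. kcat and KM came from weighted Michaelis–Menten fits across concentrations.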

Variant	self-cleavage kobs at 640 uM GlcN6P
C8A C11A G44A	< 1e-05 s⁻¹
C8G G43A C67A	< 1e-05 s⁻¹
C10U A36U G41A	< 1e-05 s⁻¹
G7C G13A G43C G51C A52G C58A G66C C68A	< 1e-05 s⁻¹
C10A A39U A52G	< 1e-05 s⁻¹
C10U G43U U45G	< 1e-05 s⁻¹
G9A C10G G44A C70U	< 1e-05 s⁻¹
G7U C16U U30G	< 1e-05 s⁻¹
G9U U56A G63U A64U	< 1e-05 s⁻¹
A6U G37C G38A C71A	< 1e-05 s⁻¹
G7C C8G C10U C70G	0.000355 ± 0.0001 s⁻¹
C8A C11U G60C C67A	< 1e-05 s⁻¹
G7U G29U A48C	< 1e-05 s⁻¹
C10U G21U G62A	< 1e-05 s⁻¹
C8G G59U G66U	< 1e-05 s⁻¹
G9C A15C G32U G40C G66C	< 1e-05 s⁻¹
G9U G29A U46A G51U C67U	< 1e-05 s⁻¹
C10G C58G G62C	< 1e-05 s⁻¹
C8U C11U U55A G62A	< 1e-05 s⁻¹
G7A A39U U49A	< 1e-05 s⁻¹
C10A A36U G62A	< 1e-05 s⁻¹
C8U A15U A48C A52C C70U	< 1e-05 s⁻¹

Variant	self-cleavage kobs at 640 uM GlcN6P
C8G C58U G59C C61U C67G	< 1e-05 s⁻¹
C8A U45C C67U	< 1e-05 s⁻¹
G7A G32C G51U	< 1e-05 s⁻¹
G7U G9A U31C G35A A52U	< 1e-05 s⁻¹
C10G U49C G66C	< 1e-05 s⁻¹
G7C A48G U54G	< 1e-05 s⁻¹
G9U U49G A52C A64C	< 1e-05 s⁻¹
C8A C16U G38A	< 1e-05 s⁻¹
G7U G9A A14U U55C	< 1e-05 s⁻¹
G9C A39U A42C U56G	< 1e-05 s⁻¹
G7A A15G U30C A48G U57A	< 1e-05 s⁻¹
G7U G40A G60U	< 1e-05 s⁻¹
C8U C58U	< 1e-05 s⁻¹
C10G C11A A39U	< 1e-05 s⁻¹
C10A U69A	0.00013 ± 1.9e-05 s⁻¹
G9A G60A C68G	< 1e-05 s⁻¹
A6U G40C G44C C50U	< 1e-05 s⁻¹
C10U A15C G43U G63U	< 1e-05 s⁻¹
C8U U49A U69G	0.000871 ± 0.00023 s⁻¹
G7U A39G U47C G59C	< 1e-05 s⁻¹
C8G U57G G59A	< 1e-05 s⁻¹
G9U C58G G59C	< 1e-05 s⁻¹

Variant	self-cleavage kobs at 640 uM GlcN6P
A6U U56C C68G	< 1e-05 s⁻¹
G9A G37A U46C	< 1e-05 s⁻¹
C10A U31A U56C	< 1e-05 s⁻¹
G7U A12G A48U G63U	< 1e-05 s⁻¹
C10A A36C U46A	< 1e-05 s⁻¹
G7U G9U U31A G37A A52C C67U U69C	< 1e-05 s⁻¹
C10G G40C C71G	< 1e-05 s⁻¹
G9C C70G	< 1e-05 s⁻¹
G7A U31C A52G	< 1e-05 s⁻¹
G7C A36U C67G	< 1e-05 s⁻¹
C8G G41U C61A	< 1e-05 s⁻¹
C8A G9A A15G A48C U57A G60A	< 1e-05 s⁻¹
C8G G41A A52U	< 1e-05 s⁻¹
G9C G41U G44C	< 1e-05 s⁻¹
C8U A15C G32U	< 1e-05 s⁻¹
C8U A53G U55A C68G	0.000442 ± 0.00017 s⁻¹
C10G A12C G13A A14G A39U C70G	< 1e-05 s⁻¹
G7C G38C A48C	< 1e-05 s⁻¹
C8G G38U C68A	< 1e-05 s⁻¹
C8U U46G C61A C68U	< 1e-05 s⁻¹
C8G U55C C71A	< 1e-05 s⁻¹

Variants of: B1
Test: self-cleavage kobs at 2500 uM GlcN6P; higher = faster cleavage; RNA array
Settings: with glucosamine-6-phosphate
In short: as §1

Variant	self-cleavage kobs at 2500 uM GlcN6P
C10U A36U G41A	< 1e-05 s⁻¹
C10A A39U A52G	< 1e-05 s⁻¹
C10U G43U U45G	< 1e-05 s⁻¹
G9A C10G G44A C70U	< 1e-05 s⁻¹
C8A C11U G60C C67A	< 1e-05 s⁻¹
G7U G29U A48C	< 1e-05 s⁻¹
G9U G29A U46A G51U C67U	< 1e-05 s⁻¹
C8U C11U U55A G62A	< 1e-05 s⁻¹
C8G C58U G59C C61U C67G	< 1e-05 s⁻¹
C10G U49C G66C	< 1e-05 s⁻¹
G7A A15G U30C A48G U57A	< 1e-05 s⁻¹
G7U G40A G60U	< 1e-05 s⁻¹
C10G C11A A39U	< 1e-05 s⁻¹
C10A U69A	3.89e-05 ± 1.5e-05 s⁻¹
A6U G40C G44C C50U	< 1e-05 s⁻¹
C10U A15C G43U G63U	< 1e-05 s⁻¹
C8U U49A U69G	0.000796 ± 0.00037 s⁻¹
C8G U57G G59A	< 1e-05 s⁻¹
G9U C58G G59C	< 1e-05 s⁻¹
A6U U56C C68G	< 1e-05 s⁻¹
C10A U31A U56C	< 1e-05 s⁻¹
C10A A36C U46A	< 1e-05 s⁻¹
C10G G40C C71G	< 1e-05 s⁻¹
G7C A36U C67G	< 1e-05 s⁻¹
C8G G41A A52U	< 1e-05 s⁻¹
C8U A15C G32U	< 1e-05 s⁻¹
G7C G38C A48C	< 1e-05 s⁻¹
C8G U55C C71A	< 1e-05 s⁻¹

Variants of: B1
Test: self-cleavage kobs at 10000 uM GlcN6P; higher = faster cleavage; RNA array
Settings: with glucosamine-6-phosphate
In short: as §1

Variant	self-cleavage kobs at 10000 uM GlcN6P
C10A A39U A52G	< 1e-05 s⁻¹
C8A C11U G60C C67A	< 1e-05 s⁻¹
G7U G29U A48C	< 1e-05 s⁻¹
C10U G21U G62A	< 1e-05 s⁻¹
C8A C16U G38A	< 1e-05 s⁻¹
C10A U31A U56C	< 1e-05 s⁻¹
C10A A36C U46A	< 1e-05 s⁻¹
G9C C70G	< 1e-05 s⁻¹
G7C A36U C67G	< 1e-05 s⁻¹
